Biological target: T1, CADM1FcΔ10 (Δ10 Fc variant formed by fusing human Fc with a CADM1 extracellular domain) (human)
T1 construct: The whole entry is the fusion (CADM1 extracellular domain, AAA linker, human IgG1 hinge-Fc); Dimerized via Fc; also called Fc10; dimerized FcΔ10
Assay: SPR (Biacore 8K), antibody amine-coupled on CM5, CADM1 as analyte, multi-cycle kinetics
Description: The antibody was diluted with a phosphate buffered saline (PBS) at a concentration of 1 mg/ml, and was then immobilized as a ligand on a sensor chip CM5 by an amine coupling method.

T1 sequence (chain, as listed by the source mutant limits assumed): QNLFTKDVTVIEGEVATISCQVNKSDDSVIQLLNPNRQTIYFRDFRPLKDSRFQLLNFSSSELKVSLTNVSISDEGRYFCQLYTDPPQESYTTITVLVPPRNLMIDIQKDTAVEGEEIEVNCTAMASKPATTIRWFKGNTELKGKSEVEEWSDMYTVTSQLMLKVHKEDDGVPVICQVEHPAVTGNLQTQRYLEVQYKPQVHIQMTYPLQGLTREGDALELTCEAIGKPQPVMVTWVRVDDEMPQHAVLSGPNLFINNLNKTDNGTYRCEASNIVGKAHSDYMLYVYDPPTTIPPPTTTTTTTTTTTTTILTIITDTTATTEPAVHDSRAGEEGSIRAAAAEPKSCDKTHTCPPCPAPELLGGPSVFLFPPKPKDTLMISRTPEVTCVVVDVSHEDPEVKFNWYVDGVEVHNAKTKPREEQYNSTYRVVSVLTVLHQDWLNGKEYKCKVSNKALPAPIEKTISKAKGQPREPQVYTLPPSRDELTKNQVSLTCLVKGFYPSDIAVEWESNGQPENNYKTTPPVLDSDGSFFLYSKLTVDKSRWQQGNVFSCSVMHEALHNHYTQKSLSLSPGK

B1: YTH-W-2C2 chimeric antibody (antibody, V domains shown)
VH: QVQLQQSGAELAKPGSSVKISCKASGYTFSNYDISWIKQTTGQGLDYIGYIHTGSGGTYYNEKFKGKATLTVDKSSSTAFMQLSSLTPEDTAVYYCARTPYVYYGSGYFDFWGPGTMVTVSS
VL: DIVMTQSPSSLAVSAGETVTINCKSSQSLLYSGNQKNYLAWYQQKPGQSPKLLIYWASTRQSGVPDRFIGSGSGTDFTLTISSVQAEDLAIYYCQQYYDTPDTFGAGTKLELKR
  Kd: 0.64 nM
